± gives the uncertainty stated by the source.
B1: COUP transcription factor 1, residues 83 to 159; numbered along this chain, P10589 (parent)
chain: HIECVVCGDKSSGKHYGQFTCEGCKSFFKRSVRRNLTYTCRANRNCPIDQHHRNQCQYCRLKKCLKVGMRREAVQRG

Variants of: B1
Assay: abundance fitness (aPCA) (normalised: wild type 0, dead -1); higher = more abundant; growth selection in yeast, the domain comes from the species named
Settings: Homo sapiens

Abundance fitness, by site and new letter:
Y58: I -0.866 ± 0.28 | D -0.046 ± 0.059 | G -0.18 ± 0.034 | A 0.017 ± 0.037 | T -0.774 ± 0.09 | H 0.051 ± 0.069 | R -0.458 ± 0.043 | M -0.312 ± 0.063 | L -0.378 ± 0.044 | P -0.587 ± 0.08 | W -0.03 ± 0.04 | F 0.072 ± 0.088 | E 0.027 ± 0.04 | Q -0.231 ± 0.052 | N -0.548 ± 0.11 | V -0.787 ± 0.073 | K -0.366 ± 0.066
L61: V -0.555 ± 0.05 | M 0.073 ± 0.042 | T -0.771 ± 0.092 | Q -0.346 ± 0.07 | W -0.05 ± 0.041 | K -0.78 ± 0.1 | A -0.72 ± 0.07 | D -0.799 ± 0.12 | C -0.649 ± 0.089 | F -0.062 ± 0.058 | P -0.65 ± 0.088 | E -0.38 ± 0.053 | G -0.73 ± 0.06 | Y -0.152 ± 0.068 | N -0.702 ± 0.14 | R -0.84 ± 0.062 | H -0.668 ± 0.12 | I -0.163 ± 0.071 | S -0.691 ± 0.07
C46: V -0.433 ± 0.063 | A -0.519 ± 0.085 | E -0.229 ± 0.074 | K -0.624 ± 0.2 | I -0.267 ± 0.2 | Q -0.18 ± 0.16 | D -0.572 ± 0.24 | W -0.779 ± 0.11 | P -0.587 ± 0.18 | F -0.501 ± 0.38 | H -0.536 ± 0.22 | L -0.492 ± 0.078 | S -0.604 ± 0.12 | M -0.654 ± 0.15 | R -0.602 ± 0.072
P47: G -0.153 ± 0.044 | S -0.172 ± 0.063 | I -0.137 ± 0.12 | N -0.679 ± 0.22 | A -0.008 ± 0.045 | W -0.217 ± 0.062 | K -0.035 ± 0.079 | R -0.188 ± 0.044 | H -0.296 ± 0.12 | M -0.267 ± 0.071 | C -0.206 ± 0.085 | L -0.141 ± 0.056 | F -0.023 ± 0.1 | V -0.003 ± 0.049 | T -0.14 ± 0.063 | D -0.271 ± 0.12
Q50: G -0.149 ± 0.035 | W -0.06 ± 0.05 | D 0.03 ± 0.071 | V -0.086 ± 0.041 | T -0.076 ± 0.069 | A 0.063 ± 0.037 | I 0.117 ± 0.089 | N 0.012 ± 0.11 | F -0.299 ± 0.17 | R -0.119 ± 0.036 | K 0.097 ± 0.062 | E 0.05 ± 0.044 | C -0.078 ± 0.071 | M -0.088 ± 0.062 | Y -0.066 ± 0.1 | S -0.086 ± 0.054
N54: C -0.314 ± 0.11 | F -0.222 ± 0.1 | V -0.025 ± 0.044 | Y -0.104 ± 0.088 | G -0.153 ± 0.039 | E 0.075 ± 0.053 | S -0.033 ± 0.051 | L -0.029 ± 0.043 | K -0.089 ± 0.082 | P 0.006 ± 0.066 | Q -0.091 ± 0.057 | W -0.194 ± 0.053 | R -0.353 ± 0.045 | I 0.092 ± 0.094 | T -0.059 ± 0.059 | M 0.015 ± 0.061 | H -0.116 ± 0.11 | D -0.071 ± 0.079
R60: M 0.283 ± 0.038 | T -0.007 ± 0.046 | L 0.205 ± 0.034 | V -0.157 ± 0.037 | I -0.227 ± 0.076 | N -0.416 ± 0.1 | F 0.132 ± 0.059 | S -0.56 ± 0.064 | P -0.602 ± 0.092 | C -0.007 ± 0.052 | W 0.139 ± 0.038 | D -0.535 ± 0.11 | Q 0.197 ± 0.045 | A -0.088 ± 0.038 | E -0.503 ± 0.06
D49: V -0.141 ± 0.052 | S -0.044 ± 0.044 | L -0.122 ± 0.052 | M -0.175 ± 0.11 | Y -0.261 ± 0.078 | W -0.13 ± 0.069 | G -0.108 ± 0.046 | F 0.017 ± 0.062 | N -0.003 ± 0.052 | H -0.269 ± 0.075 | T -0.152 ± 0.049 | P -0.323 ± 0.067 | E -0.064 ± 0.076 | I -0.199 ± 0.1 | C -0.726 ± 0.13 | R -0.313 ± 0.056 | Q -0.083 ± 0.078 | K -0.343 ± 0.087
C59: S -0.853 ± 0.1 | Q -0.801 ± 0.12 | D -0.729 ± 0.14 | F -0.978 ± 0.42 | M -0.809 ± 0.13 | A -0.668 ± 0.062 | L -0.934 ± 0.09 | E -0.696 ± 0.078 | Y -0.789 ± 0.19 | R -0.848 ± 0.069 | G -0.789 ± 0.055 | W -1.02 ± 0.12 | P -0.541 ± 0.094 | K -0.871 ± 0.14 | V -0.729 ± 0.068 | I -1 ± 0.31
C64: D -0.893 ± 0.18 | E -0.831 ± 0.099 | K -0.866 ± 0.13 | H -0.577 ± 0.16 | F -0.903 ± 0.24 | I -0.928 ± 0.25 | V -0.823 ± 0.072 | A -0.203 ± 0.043 | W -0.675 ± 0.077 | G -0.669 ± 0.049 | T -0.758 ± 0.11 | Q -0.8 ± 0.13 | R -0.908 ± 0.077 | L -0.513 ± 0.06 | S -0.475 ± 0.062 | M -0.059 ± 0.049
R53: Q 0.12 ± 0.21
